# Results taken from US20260116991A1 (HAINAN SIMCERE ZAIMING PHARMACEUTICAL, published 2026).
# Where a chain is given by its changes, count along the chain named.
# B1: F3.54.12 (antibody, human IgG1, kappa, V domains shown)
# VH: QVQLQQSGAELVRPGASVKLSCKASGYTFTDYEMHWVKQTPVHGLEWIGAIDPETGNTAYIQKFKGKATLTTDKSSSTAYMELRSLTSEDSAVYYCTRFYSYSHWGQGTTLTVSS
# VL: DVVMTQTPLSLPVSLGDQASISCRSSQSLVHSNGNTYLHWYLQKPGQSPKLLIYKVSNRFSGVPDRFSGSSSGTDFTLKISRVEAEDLGVYFCSQNTHVPPTFGGGTKLEIKR
# notes: Human-murine chimeric antibody
# B2: F3.81.19 (antibody, human IgG1, kappa, V domains shown)
# VH: B1 VH with A50T, I61N, T72A, F99P, Y102L, S103T, H104Y, T110L, L111V, S115A
# VL: DVLLTQTPLSLPVSLGDQASISCRSSQSFVHSNGDTYLQWYLQKPGQSPKLLIYKVSNRFSGVPDRFSGSGSGTDFTLKISRVEAEDLGVYYCFQGSHVPYTFGSGTKLEIKR
# notes: as for B1
# B3: F4.13.7 (antibody, human IgG1, kappa, V domains shown)
# VH: QVQLQQPGAELVKPGASVKLSCKASGYTFTNNWVHWVKQRPGQGLEWTGMIHPDSGSTIYNEKFQSKATLTVDKSSSTAYMQLSSLTSEDSAVYYCARGYYDSSSYYAMDYWGQGTSVTVSS
# VL: NIQMTQTTSSLSASLGDRVTISCSASQGIFNYLNWYQQKPDGTVKLLIYYTSSLHSGVPSRFSGSGSGTDYSLTISNLEPEDIATYYCQQYSKLPWTFGGGTKLEIKR
# notes: as for B1
# B4: F4.18.4 (antibody, human IgG1, kappa, V domains shown)
# VH: QVQLHQSGAEMAKPGASVNLSCKTSGFTFTDYGISWVKQRTRQGLEWIGDIYPRHINIYYNEKFKDKATLTADRSSSTAYMELRSMTSEDSAVYFCARRGTTGRGALDYWGQGTSLTVSS
# VL: DILLTQSPAILSVSPGERVSFSCRASQSIGTSIHWYQQRTNGSPRLLIKYAFESISGIPSRFGGSGSRTDFTLTINSVESEDIADYYCQQTYNWPYTFGGGTKLEIKR
# notes: as for B1
# B5: F4.21.16 (antibody, human IgG1, kappa, V domains shown)
# VH: DVQLQESGPGLVKPSQSLSLTCSVTGYSITSGYYWNWIRQFPGNKLEWMGYISYDVTVNYNPSLKNRISITRDTSKNQFFLKLNSVTTEDTATYYCATITSVASMDHWGQGTSVTVSS
# VL: DILMTQTPLSLPVSLGDQASISCRSSQNIVHRNGNTYLEWYLQKPGQSPKLLLYKVSNRFSGVPDRFSGSGSGTDFTLKISRVEAEDLGIYYCFQGSHFPFTFGSGTKLEIKR
# notes: as for B1
# B6: F4.26.1 (antibody, human IgG1, kappa, V domains shown)
# VH: QVQLKQSGPGLVQPSQSLSITCTVSGFSLTSYGVHWVRQSPGKGLEWLGVIWSSGNTDYNAVLISRLSIKKDDSKSQVFFKMNSPQVDDSAIYYCGRNGGWLLRGFMDFWGQGTSVTVSS
# VL: B1 VL with V30L, K44R, P45S, K50N, S70G, S71G, V90I, N96S, P101W
# notes: as for B1
# Tests used:
# monkey GPC3-His protein [1] = target: T1, monkey GPC3-His protein (monkey); assay: ELISA, monkey GPC3-His coated;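 also: Plate-coated antigen at 1 µg/mL, antibody binding 2 h at 37 °C, detected with HRP-labeled secondary antibody and TMB, absorbance at 450 nm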
# T1 construct: Bought recombinant protein; also called monkey GPC3 protein
# Method: The specific method is described as follows: The antigen protein was diluted with PBS to a final concentration of 1 μg/mL, and the diluent was added to a 96-well ELISA plate at 50 μL/well. The plate was sealed with a plastic film and incubated at 4° C. overnight, washed twice with PBS the next day, and a blocking solution [PBS+2% (w/w) BSA] was added for blocking at room temperature for 2 h. […] After incubation at 37° C. for 2 h, the plate was washed 3 times with PBS. A horseradish peroxidase (HRP)-labeled secondary antibody (purchased from Merck, Cat. No. AP113P) was added for incubation at 37° C. for 1 h, and the plate was washed 5 times with PBS. A TMB substrate was added at 50 μL/well for incubation at room temperature for 10 min, then a stop solution (1.0M HCl) was added at 50 μL/well. An ELISA plate reader (Multimode Plate Reader, EnSight, purchased from Perkin Elmer) was used to read OD_{450 nm} values, with results as shown in Table 4 to Table 6, FIG. 1A, FIG. 1B, and FIG. 1C.
# [2] = target: T2, monkey GPC3 on HEK293T-monkey GPC3 cells (monkey); assay: FACS on HEK293T-monkey GPC3 cells;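 also: flow cytometry binding of test antibodies to the cells, read as mean fluorescence intensity, with half-maximal concentration taken from fitted curves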
# T2 construct: whole, on cells
# human GPC3-His protein = target: T3, human GPC3-His protein (human, UniProt P51654 25-559); assay: SPR, antibody captured on Protein A chip, human GPC3-His analyte;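 also: measured at 25 °C flow cell, human GPC3-His injected at five concentrations up to 200 nM, 240 s association, up to 600 s dissociation, double-referenced, fitted to Langmuir 1:1 model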
# T3 construct: also called human GPC3 protein; not shown: His tag
# monkey GPC3-His protein [3] = target: T1, monkey GPC3-His protein; assay: SPR, antibody captured on Protein A chip, monkey GPC3-His analyte;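 also: run at 25 °C with 240 s association and up to 600 s dissociation, double-referenced, kinetics fitted to a 1:1 Langmuir binding model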
# Method: The flow cell was set at 25° C. The sample block was set at 16° C. Both were pretreated with the running buffer. In each cycle, first, the antibody to be tested was captured using the Protein A chip, and then a single concentration of GPC3 antigen protein was injected. […] The association was determined by injecting different concentrations of human GPC3-His in the solution and maintaining for 240 s, wherein the flow rate was 30 μL/min, and the protein was diluted at a 1:1 dilution ratio from 200 nM to obtain 5 concentrations in total. The dissociation phase was monitored for up to 600 s and triggered by switching from the sample solution to the running buffer. The surface was regenerated by washing with 10 mM glycine solution (pH 1.5) at a flow rate of 30 μL/min for 30 s. The difference in bulk refractive index was corrected by subtracting the responses obtained from the goat anti-human Fc surface. Blank injections (double reference) were also subtracted. To calculate the apparent KD and other kinetic parameters, the Langmuir 1:1 model was used.
Binder,OD450 at 0.0001 nM (monkey GPC3-His protein [1]) [OD450],OD450 at 0.001 nM (monkey GPC3-His protein [1]) [OD450],OD450 at 0.01 nM (monkey GPC3-His protein [1]) [OD450],OD450 at 0.1 nM (monkey GPC3-His protein [1]) [OD450],OD450 at 1 nM (monkey GPC3-His protein [1]) [OD450],OD450 at 10 nM (monkey GPC3-His protein [1]) [OD450],OD450 at 100 nM (monkey GPC3-His protein [1]) [OD450],EC50 [2] [nM],Max MFI [2] [MFI],Kd (human GPC3-His protein) [nM],koff (human GPC3-His protein) [s⁻¹],kon (human GPC3-His protein) [M⁻¹ s⁻¹],Kd (monkey GPC3-His protein [3]) [nM],koff (monkey GPC3-His protein [3]) [s⁻¹],kon (monkey GPC3-His protein [3]) [M⁻¹ s⁻¹]
B1,0.08,0.1,0.41,1.57,2.21,2.32,2.76,0.72,115000,4.09,0.00112,275000,2.17,0.00117,541000
B2,0.05,0.06,0.16,0.62,1.96,2.55,2.49,2.58,106000,0.545,0.000231,424000,0.415,0.000261,631000
B3,0.05,0.08,0.36,1.55,2.34,2.4,2.44,1.1,44100,32.3,0.00156,48400,31.4,0.00264,84000
B4,0.14,0.12,0.14,0.85,0.77,1.32,1.9,0.89,52600,5.08,0.000443,87100,4.65,0.000552,119000
B5,0.04,0.06,0.05,0.1,1.41,1.65,1.08,3.25,50900,6.58,0.000267,40600,7.81,0.000303,38800
B6,0.27,0.07,0.18,0.89,1.38,1.88,1.5,1.21,50500,2.34,0.000461,197000,1.38,0.000587,425000
